Laboratory results: PMC11623273
Where two headings read alike, the source gives them in different places.

Assays:
Fab AP33 (Mus musculus) [1] = conditions: domain or fragment; Disulfide-linked heavy and light Fab chains. No candidate fits and the paper prints no AP33 sequence. PDB 4GAG (murine AP33 Fab with the E2 412-423 peptide) is cited from memory; entities 1 and 2 are assumed to be the antibody chains, and the peptide entity is excluded. The C-terminal double Strep tag on the heavy chain is omitted. The constant-region species of the S2-expressed Fab is not given; modification not given
Fab AP33 (Mus musculus) [2] = conditions: other; Disulfide-linked heavy and light Fab chains. No candidate fits and the paper prints no AP33 sequence. PDB 4GAG (murine AP33 Fab with the E2 412-423 peptide) is cited from memory; entities 1 and 2 are assumed to be the antibody chains, and the peptide entity is excluded. The C-terminal double Strep tag on the heavy chain is omitted. The constant-region species of the S2-expressed Fab is not given; modification not given

Row | Binder | Kd (Fab AP33 (Mus musculus) [1]) | Kd (Fab AP33 (Mus musculus) [2])
1 | soluble HCV E2 ectodomain (sE2) (protein) GTTTVGGAVARSTNVIAGVFSHGPQQNIQLINTNGSWHINRTALNCNDSLNTGFLAALFYTNRFNSSGCPGRLSACRNIEAFRIGWGTLQYEDNVTNPEDMRPYCWHYPPKPCGVVPARSVCGPVYCFTPSPVVVGTTDRRGVPTYTWGENETDVFLLNSTRPPQGSWFGCTWMNSTGFTKTCGAPPCRTRADFNASTDLLCPTDCFRKHPDATYIKCGSGPWLTPKCLVHYPYRLWHYPCTVNFTIFKIRMYVGGVEHRLTAACNFTRGDRCDLEDRDRSQLSPLLHSTTEWAILPCTYSDLPALSTGLLHLHQNIVDVQYMYGLSPAITKYVVR | 58.4 nM | 
2 | E2_S2_1 (design 2K6Z_01), epitope scaffold displaying HCV E2 epitope I (protein) MGSFTEGWVRFSPGPNAAAYLTLENPGDLPLRLVGARTPVAERVELWETQLINTNGSWHIGSRPVPFLEVPPKGRVELSPGGYYFHLLGLKRPLKAGEEVELDLLFAGGKVLKVVLPVEARGSENLYFQ |  | 44.9 nM
